Changes are numbered by the printed parent chain. Each block holds one binder with its values, some of them ahead of it.
Legend:
[1] = target: T1, cynomolgus RANK-L, full length, membrane-bound, expressed on HEK293T cells (cynomolgus monkey, UniProt A0A7N9DBU4 1-317); experiment: FACS, HEK293T with cynomolgus RANK-L, 2000 pM Nanobody
T1 construct: whole, on cells; also called cyno RANK-L
T1 sequence: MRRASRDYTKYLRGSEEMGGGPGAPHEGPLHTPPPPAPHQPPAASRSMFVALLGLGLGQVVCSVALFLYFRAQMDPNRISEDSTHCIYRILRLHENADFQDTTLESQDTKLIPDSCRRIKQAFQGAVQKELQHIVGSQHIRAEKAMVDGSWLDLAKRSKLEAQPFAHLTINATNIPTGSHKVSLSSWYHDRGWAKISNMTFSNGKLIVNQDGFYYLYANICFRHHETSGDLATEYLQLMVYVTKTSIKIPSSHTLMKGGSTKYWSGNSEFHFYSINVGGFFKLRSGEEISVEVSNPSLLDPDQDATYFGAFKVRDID
Experimental: (§1) Human embryonic kidney cells (HEK293T) were grown in Dulbecco's modified Eagles's medium supplemented with 10% fetal bovine serum (FBS), […] L-glutamine, 0.4 mM sodium pyruvate. […] After 48 hours, transfected cells were subjected to FACS analysis. […] Then cells were washed three times with FACS buffer. Bound Nanobodies were detected by subsequent incubations of a primary mouse anti Myc antibody (30 min at 4° C. (2 μg/ml)) and a second incubation with goat anti mouse-Phycoerythrin (PE) (Jackson Laboratories) for another 30 min at 4° C. Finally, after washing, the cells were resuspended in PBS+10% FBS+TO-PRO®-3 (5 nM) (Molecular Probes®, Invitrogen, Merelbeke, Belgium) and cell surface fluorescence expressed as mean PE fluorescence, was measured using flow cytometry.

[2] = target: T2, human RANK-L, full length, membrane-bound, expressed on HEK293T cells (human, UniProt O14788 1-317); experiment: FACS, HEK293T with human RANK-L, 3.2 pM Nanobody
T2 construct: whole, on cells; also called hRANK-L
T2 sequence (looked up): T1 sequence with T32A, L68F, S83G, N174D, T177S, V291I
Experimental: as §1

human RANK-L [3] = target: T3, human RANK-L (human, UniProt O14788 140-317, limits assumed); experiment: FMAT, ALEXA647-hRANK-L / RANK on HEK293T cells
T3 construct: Soluble protein, used coated, biotinylated or labelled in ELISA, AlphaScreen, FMAT and Biacore; also called hRANK-L; soluble human RANK-L
T3 sequence (looked up): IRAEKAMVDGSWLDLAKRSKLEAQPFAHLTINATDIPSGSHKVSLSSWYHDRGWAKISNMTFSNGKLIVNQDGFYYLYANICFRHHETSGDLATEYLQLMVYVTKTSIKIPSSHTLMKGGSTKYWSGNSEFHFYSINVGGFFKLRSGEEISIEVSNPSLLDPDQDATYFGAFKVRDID
Experimental: HEK293T cells were transiently transfected with the plasmid expressing full length RANK using Fugene6 as described in example 3. After 24 hours aliquots of 60 μl (7.5×10³ cells) were plated into FMAT system 384-well plates (PE Biosystems, CA, US) and allowed to adhere for 24 h. After overnight adherence, culture supernatant was removed by gently tapping the plate. […] The plates were scanned after 10 hours of incubation. Cell surface fluorescence was measured by 8200 Cellular Detection System (Applied Biosystems, Foster City, Calif., US) which is a fluorescence macro-confocal, biological binding event analyzer that enables mix-and-read assays with live cells.

human RANK-L [4] = target: T3, human RANK-L; experiment: cell-based or functional assay
human RANK-L [5] = target: T3, human RANK-L; experiment: AlphaScreen, biotin-hRANK-L / RANK-huFc beads
Experimental: To this mixture, the RANK acceptor beads and the streptavidin donor beads were added and further incubated for 1 hour at room temperature. Fluorescence was measured by reading plates on the EnVision Multilabel Plate Reader (Perkin Elmer) using an excitation wavelength of 680 nm and an emission wavelength of 520 nm.

human RANK-L [6] = target: T3, human RANK-L; experiment: FMAT, ALEXA647-hRANK-L / RANK on HEK293T cells; remark: listed apart in the source
mouse RANK-L = target: T4, mouse RANK-L (mouse, UniProt O35235 158-316, limits assumed); experiment: ELISA, set-up as for human RANK-L
T4 construct: also called murine RANK-L
T4 sequence (looked up): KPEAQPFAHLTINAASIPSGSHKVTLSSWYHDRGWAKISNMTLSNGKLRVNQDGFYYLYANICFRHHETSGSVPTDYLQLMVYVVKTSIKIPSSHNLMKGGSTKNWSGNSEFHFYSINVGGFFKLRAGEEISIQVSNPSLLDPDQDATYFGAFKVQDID
Experimental: Therefore 2 μg/ml neutravidin was coated overnight at 4° C. The plates were washed 5 times with 300 μl PBS and then blocked with […] 1% casein/PBS for 2 hours at room temperature. […] After extensive washing with PBS, varying concentrations of Nanobodies starting from 500 nM to 160 pM diluted in 1% casein/PBS were added to the wells and the plates were incubated for 1 hour at room temperature. Bound Nanobodies were detected by subsequent incubations of a primary mouse anti-myc antibody and a secondary anti mouse-HRP conjugate (DAKO, Glostrup, Denmark) and using TMB-H2O2 (Pierce, Rockford, Ill., USA) substrate cocktail. The reaction was stopped with H₂SO₄ and the OD was read at 450 nm.

[7] = target: T2, human RANK-L, full length, …; experiment: FACS, HEK293T with human RANK-L, 16 pM Nanobody
Experimental: as §1

human RANK-L [8] = target: T3, human RANK-L; experiment: SPR Biacore 3000, hRANK-L on CM5, 100 nM Nanobody
Experimental: Binding kinetics of the humanized versions of Nanobodu RANL13 were also analysed by Surface Plasmon Resonance (Biacore 3000). […] Nanobody binding was assessed at one concentration (100 nM). Each Nanobody was injected for 4 minutes at a flow rate of 45 μl/min to allow binding to chip-bound antigen. Next, binding buffer without Nanobody was sent over the chip at the same flow rate to allow spontaneous dissociation of bound Nanobody.

PE mean fluorescence [1]: 12000
PE mean fluorescence [2]: 105
IC50 (human RANK-L [3]): 0.552 nM
RANK-L induced NF-kappaB activation (luciferase reporter, HEK293T cells), IC50 (human RANK-L [4]): 15.2 nM
IC50 (human RANK-L [5]): 0.146 nM
IC50 (human RANK-L [6]): 0.253 nM
binding result (mouse RANK-L): no binding (tested: 500 nM to 160 pM)
PE mean fluorescence [7]: 218
koff (human RANK-L [8]): 5.6e-05 s⁻¹
B1: RANKL18 (VHH, not shown: small tags and cut ends)
VHH: EVQLVESGGGLVQAGGSLRLSCAASGRTFSRSAMGWFRQAPGKEREFVGFITGSGGTTYYGESVKGRFTISRDNAQNPVYLQMNSLKPEDTAVYYCGVYRRTYISSTYSESSEYDYWGQGTQVTVSS

PE mean fluorescence [1]: 12400
PE mean fluorescence [2]: 220
IC50 (human RANK-L [3]): 0.429 nM
RANK-L induced NF-kappaB activation (luciferase reporter, HEK293T cells), IC50 (human RANK-L [4]): 6.21 nM
IC50 (human RANK-L [5]): 0.185 nM
IC50 (human RANK-L [6]): 0.264 nM
binding result (mouse RANK-L): no binding (tested: 500 nM to 160 pM)
PE mean fluorescence [7]: 499
koff (human RANK-L [8]): 0.00025 s⁻¹
B2: RANKL13 (VHH, not shown: small tags and cut ends)
VHH: EVQLVESGGGLVQAGGSLRLSCAASGRTFRSYPMGWFRQAPGKEREFVASITGSGGSTYYADSVKGRFTISRDNAKNTVYLQMNSLRPEDTAVYSCAAYIRPDTYLSRDYRKYDYWGQGTQVTVSS
